Literature values in paper PMC6181577.

Biological target: UBQLN2 UBA (Homo sapiens) (UniProt Q9UHD9)
Sequence (Q9UHD9 578-624): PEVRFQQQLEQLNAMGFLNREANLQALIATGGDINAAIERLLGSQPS

UBQLN2 UBL, sequence (Q9UHD9 33-107): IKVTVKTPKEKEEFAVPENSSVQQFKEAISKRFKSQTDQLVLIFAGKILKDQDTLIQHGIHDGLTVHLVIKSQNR

Kd: 175 µM
Substance: UBQLN2 UBL (from UniProt Q9UHD9)
